Experimental data: US20230218735A1 (Pfizer, published 2023)

B1: hCDIFA-1 (antibody, V domains shown)
VH: QLQLQESGPGLVKPSETLSLICTVSGGSFSSSDFYWGWIRQPPGKGLEWIGNFYYNGSTSYNPSLKSRVTISVDTSKNQFSLKLRSVTAADTAVYYCARDYNFWNNSPNWFDPWGQGTLVTVSS
VL: EIVMTQSPATLSVSPGERATLSCRASQSISSNLAWYQQKLGQAPRLLIHGASTRATGIPARFSGSGSGTQFTLTISSLQSEDFAVYFCQQYNNWPPTFGGGTKVDIKR
B2: hCDIFA-15 (antibody, V domains shown)
VH: QVQLVQSGAEVKKPGASVKISCKASGYTFVRYYMHWVRQAPGQGLEWMGLIDPSGGSTRYAQRFQGRVTMTRDTSTSTVYMELSGLRSEDTAVYYCARDGPFGGLSGGNWFDPWGQGTLVTVSS
VL: AIRMTQSPGTLSLSPGERATLSCRASQSLSFSYLAWYQQKPGQAPRLLIYGASSRATGIPDRFSGSGSGTDFALTISRLEPEDFAVYYCQQYGTSPLTFGGGTKVDIKR
B3: hCDIFA-24 (antibody, V domains shown)
VH: QVQLVQSGGGVVQPGRSLRLSCAASGFSFSTHGMHWVRQAPGKGLEWVAVISYDGSNKYYADSVKGRFTISRDNSKNTVYLQMNSLRAEDTAVFYCAKPRDNYYYYGMDVWGQGTTVTVSS
VL: AIRMTQSPSSLSASTGNRVTITCRASQGISSYLAWYQQKPGKAPNLLIYAASTLQSGVPSRFTGSGSGTDFTLTISRLHSENFATYYCQQYFNYPRTFGQGTRLEIKR
B4: hCDIFA-32 (antibody, V domains shown)
VH: QVQLQESGPGLVKPSETLSLTCTVSGGSISSHYWSWIRQTPGKGLEYIGNIYYTGRTKYNPSLKSRVTISADMSKNQVSLKLNSVTAADTAVYYCARGGPLMDVWGQGTTVTVSS
VL: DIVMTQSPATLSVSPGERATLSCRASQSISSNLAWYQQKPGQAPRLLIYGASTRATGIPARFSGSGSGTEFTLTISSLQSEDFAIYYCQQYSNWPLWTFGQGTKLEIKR
B5: hCDIFA-35 (antibody, V domains shown)
VH: EVQLVQSGGGVVQPGRSLKLSCAASGFSFSSHGMHWVRQAPGKGLEWVALISYDGSYKYYEDSVKGRFTISRDNSKNTLYLQMNSLRAEDTAVYYCAKDWERYCSGMSCYLRNSLDYWGQGTLVTVSS
VL: QSALTQPPSVSVAPGKTAGITCGGPNIGSKSVHWYQRKPGQAPVLVVYDDRYRPSGIPERFSGSNSGNTATLSISRVEAGDEADYYCQVWDSRSDHVVFGGGTKLTVLG
B6: hCDIFA-37 (antibody, V domains shown)
VH: QVQLLESGPGLVKTSGTLSLTCSVSGDSVSTNNWWTWVRQPPGKGLEWIGEIYYNGNTIYNPSFKSRVTISVNRSKNHFSLKLNSVTAADRAVYYCARRTWNDVGPFDYWGQGILVTVSS
VL: DIVMTQSPSSLSASIGDRVIITCRASQNINRYLNWYQQTAGKAPKLLIYGTSNLQSGVPSRFSGSGSGSGTDFTLTISSLQPEDFATYYCHQSYRTPQTFGQGTKLEIKR
B7: hCDIFA-43 (antibody, V domains shown)
VH: QVQLVQSGPVLVKPTETLMLTCTVSGFSLSSAGMGVSWIRQPPGKAPEWLAHIFLSDEKSYRTSLESRLTISKDTSKSQVVLIMTNVDPADTATYYCARALKRYCTGGVCFLNWFDSWGPGTVVTVSS
VL: DIVMTQSPGTLSLSPGERATLSCRASLSIGNLYLAWYKQRPGHPPRLLIYGASSRATGTPDRFSGSGSGTDFTLTISRLEPEDFVVYYCQQYKTSPWTFGQGTKVEIKR
B8: hCDIFA-45 (antibody, V domains shown)
VH: QVQLVQSGPEVRKPGTSVKFSCKASGFTFTSAAMQWVRQARGQRLEWIGWIVVDSGNTNYAQKFQERVTITRDMSTSTVYMELSSLRSEDTAMYYCAASRGIVGTRGLFDSWGQGTLVTVSS
VL: EIVLTQSPSSLSSSVGDRVTITCRASQSIRNYLNWYQQKPGKAPKLLIYGASSLQSGVPPRFSGSGFGTDFTLTISNLQPEDFASYSCQQTYSTPLTFGGGTKLEIKR
B9: hCDIFA-47 (antibody, V domains shown)
VH: QVQLQESGAEVKKPGSSVKVSCQASGGTFSNYAFNWVRQAPGQGLEWMGRTIPIVGLVNYAQNFQGRITFSADKSTSTAYMEVNSLRSDDTAVYYCARAEYPLNCTRGNCDVGTSYHYYYGMGVWGRGTTVTVSS
VL: EIVMTQSPATLSVSPGERATLSCRASQSISSNLAWFQQKPGQAPRLLIHGASTRATGIPVRFSGSGSGTEFTLTISSLQFGDSAVYYCQQYYNWRYTFGQGTKLEIKR
B10: hCDIFA-49 (antibody, V domains shown)
VH: QVQLQESGPRLLEPSETLSLSCTVSGGSITSYYWGWIRQSPGKGLQWIGHIDSSGNTNYNYNSSLMNRVTISVVTSKNQFSLKLTSVTPADSAVYYCARVYLFYFGQSKWEYFDSWGQGTLVTVSS
VL: QSALTQPPSVSGAPGQRVTISCTGSDSNIGTDYDVHWYKQVPGAAPKLLIYGINNRPSGVPDRFSGSKSGTSASLAITGLQAEDEGDYYCQSYDIRPSGSVVFGGGTKLTVLG
B11: hCDIFA-50 (antibody, V domains shown)
VH: QVQLVQSGTEVKKPGASVKVSCKASGYTFTNYGISWVRQAPGQGLEWMGWISGNNGHTNYAQNLQGRVTMTTDTSTSTAYMELRSLRSDDTAVYYCARVTRWFGELLGDYWGQGTLVTVSS
VL: QTVVTQEPSLTVSPGGTVTLTCASSTGAVTSGFLPNWFQQKPGQAPRALIYNTNNKHSWTPARFSGSLLGGKAALTLSGVQPEDEAEYYCLLYFDDAQVQVFGGGTKLTVLG
B12: hCDIFA-51 (antibody, V domains shown)
VH: EVQLLESGGGVVQPGRSLRLSCAASGFTFSNYGMHWVRQAPGKGLEWVAVIWYDGSNKYYADSVKGRFTISRDNSKNMVYLQMNSLRGADTAVYYCAGDRHLGLWGYYYYYYAMDVWGQGTTVTVSS
VL: QAVVTQPPSVSAAPGQRVTISCSGSSSNIGKNYVSWYQHLPGTAPKLLIYESNKRPSGIPDRFSGSKSGTSATLGITGLQTGDEADYYCGTWDSSLSAGLFGGGTKVTVLG
B13: hCDIFA-4 (antibody, V domains shown)
VH: QVQLQESGPGLVKPSGTLSLTCAVSGGSISSINWWSWVRQPPGKGLEWIGEIYHSGSTNYNPSLKSRVTISVDKSKNQFSLKLSSVTAADTAVYYCAREGKVDSSSQGNWFDPWGQGTLVTVSS
VL: QPVLTQPRSVSGSPGQSVTISCTGTSSDVGGYNYVSWYQQHPGKAPKFMIYDVSKRPSGVPDRFSGSKSGNTASLTISGLQAEDEADYYCCSYAGTYTFYVFGTGTKVTVLG
B14: hCDIFA-53 (antibody, V domains shown)
VH: QVQLQQSGPGLVKPSETLSLTCTLSGGSISSDNYYWGWVRQPPGKGLEWIGSIYYSGSTYYNPSLKSRVFISVDMSKNQFSLKLSSVTAADTAVYYCARHTQGLGILRYFDWWTRPFDYWGQGTLVTVSS
VL: QSALTQPASVSGSPGQSITISCTGTSSDVGSYNLVSWYQQHPGKAPKLMIYEGSKRPSGVSNRFSGSKSGNTASLTISGLQAEDEADYYCCSYAGSSTLFGGGTKLTVLG
B15: hCDIFA-54 (antibody, V domains shown)
VH: QVQLVESGAEVKKPGASVKVSCKASGYTFTSYDINWVRQATGQGLEWMGWMNPNSGNTGYAQKFQGRVTMTRNTSISTAYMELSSLRSEDTAVYYCARGGPNSGSFSHWFDPWGQGTLVTVSS
VL: QAVVTQPPSASASLGASVTLTCTLSSGYSNYKVDWYQQRPGKGPRFVMRVGTGGIVGSKGDGIPDRFSVLGSGLNRYLTIKNIQEDDESDYHCGADHGSGSNFAVVFGGGTKLTVLG
B16: hCDIFA-55 (antibody, V domains shown)
VH: EVQLLESGAEVKKPGASVKVSCKASAYTFTTYGINWVRQAPGQGLEWMGWVSFSNGNTEYAQKFQGRVTMTTDTSTSTAFMELRSLRSDDTAVYYCASEKGELLSGCFDPWGQGTLVTVSS
VL: QSVLTQPPSVSAAPGQKVTISCSGSSSNIGNSLVSWYQHLPGTAPKLLISDNNERPSGIPDRFSGSKSGTSATLGITGLQTGDEADYYCGTWDSSLSVVVFGGGTKLTVLG
B17: hCDIFA-59 (antibody, V domains shown)
VH: QVQLVESGGGLVQPGRSLRLSCRTSGFTFGDFALSWVRQAPGKGLEWVGYIRSKTFGGTTEYAASVKGRFTMSRDDSKSIAYLQMNSLKTEDTAVYFCTRASYGAFDYWGQGTLVTVSS
VL: DIVMTQSPSSLSASVGDTVTITCRAGQNIATYLHWYQQKPGKAPNLLIYDARTLQSGVPSRFSGSGSGTDFTLTINSLQPEDFATYYCQQSYNTPWTFGQGTKVEIKR
B18: hCDIFA-5 (antibody, V domains shown)
VH: EVQLVESGPGLVKPSETLSLTCAVSGGSISGYYWSWIRQPPGKGLEWIAYIYDSGSTSHNPSLKSRVTTSVDTSKNQFSLKLNSVTAADTAVYYCARSGKWALGAFDMWGQGTMVTVSS
VL: QSALTQPPSVSGAPGQRVTISCTGSSSNIGAGYDVHWYQQLPGTAPKLLISGNNNRPSGVPDRFSGSKSGTSASLAITGLQAEDEADYYCQSYDNDLSGLVVFGGGTKLTVLG
B19: hCDIFA-6 (antibody, V domains shown)
VH: QVQLQESGPGLVKPSQTLSLTCSVSGDSSSSGDYYWNWIRQPAGKGLEWIGYIYTSGSTNYNPSLKSRVTISEDTSKKQFSLKLTSVTAADTAVYYCARGIVGVGLDYWGQGTLVTVSS
VL: EIVMTQSPSTLSASVGDRVTITCRASQTISSWLAWYQQKPGRAPKLLMSKTSTLQPGVPSRFSGSGSGTEFTLTISGLQPDDVATYYCHHYNSWPFGPGTKVEIKR

What was measured:
[1] = target: T1, genetically modified and chemically inactivated C. difficile toxoid A (Clostridium difficile, UniProt P16154 2-2710); test: ITC
T1 construct: also called TxdA; the toxoid

C. difficile toxin A = C. difficile toxin A (Clostridium difficile, UniProt P16154 1-2710); test: cell-based or functional assay

Row | Binder | DH [1] [kcal/mol] | Kd [1] [nM] | Stoichiometry [1] | EC50 TcdA [RLU], toxin neutralization assay (TNA) on IMR90 cells (C. difficile toxin A) [RLU]
1 | B1 | -17.2 | 8 | 1.45 | 5760
2 | B2 | -2.7 | 38 | 1.68 | ~147
3 | B3 | -11.2 | 6 | 1.07 | 6300
4 | B4 | -12 | 21 | 0.21 | 306
5 | B5 | -16.6 | 8 | 1.04 | ~52
6 | B6 | -7.9 | 7 | 0.95 | 37100
7 | B7 |  |  |  | 3210
8 | B8 | -17.6 | 0.3 | 0.98 | 1490
9 | B9 |  |  |  | 12700
10 | B10 |  |  |  | 305000
11 | B11 |  |  |  | 1490
12 | B12 |  |  |  | 1640
13 | B13 |  |  |  | 22800
14 | B14 |  |  |  | 4100
15 | B15 |  |  |  | 1490
16 | B16 |  |  |  | 942000
17 | B17 |  |  |  | 9
18 | B18 |  |  |  | 1450
19 | B19 |  |  |  | 1420
